Measurements taken from the RNAGym collection of RNA variant scans (doi:10.1073/pnas.2313332121).
Fewer inactive variants are shown than the library holds.

B1: TPR 5TU (parent)
chain: GGAUCUUCUCGAUCUAACAAAAAAGACAAAUCUGCCACAAAGCUUGAGAGCAUCUUCGGAUGCAGAGGCGGCAGCCUUCGGUGGCGCGAUAGCGCCAACGUUCUCAACUAUGACACGCAAAACGCGUGCUCCGUUGAAUGGAGUUUAUCAUG

Variants of: B1
Assay: polymerase ribozyme fitness, log enrichment relative to wild type (log ratio); higher = more active; in vitro selection for triplet polymerase activity
Procedure, shortened: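 Genotype fitness is the logarithm of its enrichment divided by wild-type enrichment, using inverse-variance-weighted averages of replicates. That logarithm is base 2. Enrichment was measured by Illumina sequencing of input and output libraries from one triplicate in vitro selection round, with frozen incubation at −7 °C, on PCR-built, transcribed mutant libraries of each subunit of a heterodimeric triplet polymerase ribozyme, retaining genotypes with ≥10 input reads and ≥1 read per output.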

| Variant | polymerase ribozyme fitness (log ratio) |
| --- | --- |
| C38U A52C A60G A119G | 0.129 |
| C38G A40G A49G A60U C93A A121G | ≤ -4.2 |
| C38U C93A A119C A142U | -3.54 |
| C38A C54A C63U G70U C75U C87A | ≤ -4.2 |
| C38U A41C G48A C51A G84C G141C | ≤ -4.2 |
| A37G C95A U127G | -4.15 |
| A37U U56A C99U G143U | -3.88 |
| A37G A91C A138C G140U | ≤ -4.2 |
| A37G G117U | -2.18 |
| C38U U78C C95U | -0.556 |
| A37G G83U G84A A142G | ≤ -4.2 |
| C38A C93A | -2.59 |
| C38A G48C G71U | ≤ -4.2 |
| C38U G48A C87A | ≤ -4.2 |
| C38U G62A A113G G136A | -2.45 |
| C38A A64G C69G C87U U134A U151C | ≤ -4.2 |
| C38U U55G G83U U135C | -1.98 |
| C38G C123A | -0.288 |
| C38U U56A G70C A91U U104A A107C U145A | ≤ -4.2 |
| C38U C51G U82C C96A A97U C125G | -3.55 |
| C38U U45A G68C U102G A138G | ≤ -4.2 |

| Variant | polymerase ribozyme fitness (log ratio) |
| --- | --- |
| C38A U55A U135A U146C | -1.06 |
| C38U A52G C57U G67U A89U G92A | ≤ -4.2 |
| C38A G86C | -3.27 |
| C38G A52G G62A U135G | ≤ -4.2 |
| C38U U55C A64U G94A C103A C125U | ≤ -4.2 |
| A37U G58A G59C A121U | -0.167 |
| C38G A142C | -1.24 |
| A37G C93U | -3.38 |
| C38U A121C G136C A138U U148G | ≤ -4.2 |
| C38U C87U G94U | -1.73 |
| A37U C96U G126U | -2.91 |
| C38A A41U A52C | -2.5 |
| A37U G80C G81C U102A A110U C118G A120U G133U | ≤ -4.2 |
| C38A C96U C99U | -0.43 |
| C38A A47G U55A U56C A60G | -2.08 |
| C38G G42U G68A U77A C96U G141U | ≤ -4.2 |
| C38U G62U C96G | -1.8 |
| A37G C93A U145G | -3.99 |
| C38U G50A U77C C87G | ≤ -4.2 |
| A37U A52G G83A G84A A115U | ≤ -4.2 |
| C38A G94U G143U | ≤ -4.2 |

| Variant | polymerase ribozyme fitness (log ratio) |
| --- | --- |
| A37G A39C C87A C116U G136A | ≤ -4.2 |
| C38A U55A | -0.143 |
| C38A C87U A98G A106C C125A U135A C149A | ≤ -4.2 |
| C38U C57A C63U C95U A98U C99G | -1.54 |
| C38U C96G G152U | -3.85 |
| A37U U101G U134G G141A | -4.08 |
| A37U C103A | -3.85 |
| C38U G81A C99G A120U G124C | -3.02 |
| C38U U90G C95A | ≤ -4.2 |
| C38U G92U C95G A106U | ≤ -4.2 |
| A37G C38A G48U | -2.25 |
| C38G G42C U82G G86C G141C U144G | ≤ -4.2 |
| C38U G80C C85U G100U | ≤ -4.2 |
| A37G U77A C87A C99U G140C A147U | ≤ -4.2 |
| C38U U145A | 0.631 |
| C38A U55A C85A | -2.66 |
| A37G G124A | -2.19 |
| C38A C54U A73U | -2.15 |
| C38U C95G U102A | -2.51 |
| C38U A52G A73U G152U | -4.12 |
| C38G G58C G84A A119U | -0.795 |

| Variant | polymerase ribozyme fitness (log ratio) |
| --- | --- |
| A37U C75A C85U G112C G124C C132G A142G U145A | ≤ -4.2 |
| C38U G86A A137G A147U | -2.49 |
| C38U A41G G58A | 1.52 |
| A37U U61A A89C C96A A98C U104A | ≤ -4.2 |
| C38U A47C U53A A142C | -3.39 |
| A37U U55A G58C A142U | -2.45 |
| C38U G83U C123U U148C | -2.21 |
| C38A C63A C95U A106G | -1.81 |
| C38U C85U C95G C105A | -3.93 |
| A37G A52G U55A U56A C85U C103U U145A | -3.09 |
| C38U U55G A119G | -0.675 |
| C38U G58U C85U C108A U134A U144C | ≤ -4.2 |
| C38U G88C G126C A147C | ≤ -4.2 |
| A37U G84A U102C C123G | -4.19 |
| A37G G42C G88U A115G | ≤ -4.2 |
| A37G C96A U102A C131U G136U | ≤ -4.2 |
| A37G C85U | -2.1 |
| C38U U44A G70C U134G | ≤ -4.2 |
| C38G A73U C95A U146G | -2.85 |
| C38U A41U G94A | -1.15 |
